We go through five substances from PMC549075.

The target in the experiment is Lamb brain tubulin (lamb).
In the case of “Tat Oyi peptide 38-72 (from UniProt P20893 38-72)”, the ΔOD 350 nm plateau of 15 μM tubulin at 37°C with 8 μM compound is 0.78 ΔOD 350 nm and the ΔOD ratio (plateau with 8 μM compound divided by plateau of tubulin alone) is 2.56.
On to “Tat Oyi peptide 73-101 (from UniProt P20893 73-101)”, for which the ΔOD 350 nm plateau of 15 μM tubulin at 37°C with 8 μM compound (same level as the control: not active in tubulin polymerization) is 0.31 ΔOD 350 nm and the ΔOD ratio (plateau with 8 μM compound divided by plateau of tubulin alone) amounted to 1.01.
Turning to Tat Eli peptide 38-72, the ΔOD 350 nm plateau of 15 μM tubulin at 37°C with 8 μM compound is 1.59 ΔOD 350 nm and the ΔOD ratio (plateau with 8 μM compound divided by plateau of tubulin alone) came to 5.2.
As to Tat Eli peptide 73-99, the ΔOD 350 nm plateau of 15 μM tubulin at 37°C with 8 μM compound (same level as the control: not active in tubulin polymerization) was 0.3 ΔOD 350 nm and the ΔOD ratio (plateau with 8 μM compound divided by plateau of tubulin alone) worked out at 1.
In the case of “HIV-1 Tat protein, Eli strain (natural protein)”, the ΔOD 350 nm plateau of 15 μM tubulin at 37°C with 8 μM compound was 1.61 ΔOD 350 nm and the ΔOD ratio (plateau with 8 μM compound divided by plateau of tubulin alone) was 5.27.
